Source: the supplement of paper PMC6757056
± gives the standard deviation of the averaged measurements.

B1: library; a variant is named by its letters at N, in order (parent)
chain: GCUGUCACCGGUGCUUGGUACGUUAUAUUCAGCCGGUCUGAUGAGUCUNNNNNNAGACGAAACAGC

What was measured:
(6R,S)-folinic acid [1] = variants of: B1; assay: FACS-Seq fitted mean relative fluorescence mCherry/BFP without ligand (log10 relative fluorescence); HEK293T overexpressing SLC46A1; higher = higher reporter protein expression; conditions: without (6R,S)-folinic acid; ligand present: no
Method in brief: (§1)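 Cells were sorted into 6 bins on the mCherry/BFP ratio after 48 h with or without ligand. These were enriched HEK293T cells transduced by lentivirus with a ribozyme-switch mCherry reporter plus an EF1α-BFP marker. Fluorescence was obtained by fitting a normal distribution to sequencing-derived bin counts. Counts came from MiSeq sequencing of PCR-amplified, barcoded genomic DNA, binned by log10(mCherry/BFP), with means scaled to five spiked-in control ribozymes.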

(6R,S)-folinic acid [2] = variants of: B1; assay: normalized RNA/DNA level without ligand (relative to sTRSVctl = 100) (log10 (% of sTRSVctl)); HEK293T overexpressing SLC46A1; higher = less ribozyme self-cleavage, higher mRNA level; conditions: without (6R,S)-folinic acid; ligand present: no
Method in brief: (§2)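 HEK293T cells received ligand, where used, 1 h before being transfected with 4 µg per 6-well well of library plasmids encoding reporter-linked ribozyme switches. After 72 h, RNA was extracted with EDTA and sequenced. RNA level was derived from RNA reads per DNA read, normalized to a spiked-in non-cleaving sequence or the top sequences, then scaled and log-transformed. Values were ×100 then log10, the top set was 25 sequences, and the minimum was 100 DNA reads.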

(6R,S)-folinic acid [3] = variants of: B1; assay: FACS-Seq fitted mean relative fluorescence mCherry/BFP with ligand (log10 relative fluorescence); HEK293T overexpressing SLC46A1; ligand concentration (+) FACS-Seq: 6 mM; higher = higher reporter protein expression; conditions: with (6R,S)-folinic acid; ligand present: yes
Method in brief: as §1

(6R,S)-folinic acid [4] = variants of: B1; assay: normalized RNA/DNA level with ligand (relative to sTRSVctl = 100) (log10 (% of sTRSVctl)); HEK293T overexpressing SLC46A1; ligand concentration (+) RNA-Seq: 6 mM; higher = less ribozyme self-cleavage, higher mRNA level; conditions: with (6R,S)-folinic acid; ligand present: yes
Method in brief: as §2

Variant	FACS-Seq fitted mean (log10) ((6R,S)-folinic acid [1])	normalized RNA/DNA level without ligand (log10) ((6R,S)-folinic acid [2])	FACS-Seq fitted mean (log10) ((6R,S)-folinic acid [3])	normalized RNA/DNA level with ligand (log10) ((6R,S)-folinic acid [4])
CUAAGU	0.502 ± 0.033	2 ± 0.022	0.535 ± 0.079	1.995 ± 0.0037
GUACAG	0.519 ± 0.15	1.938 ± 0.018	0.81 ± 0.0085	2 ± 0.024
GUACAC	0.175 ± 0.17	1.984 ± 0.01	0.311 ± 0.16	2.029 ± 0.019
AGUUCA	0.161 ± 0.15	2.005 ± 0.006	-0.01 ± 0.41	2.008 ± 0.012
UGUUUG	0.222 ± 0.04	1.794 ± 0.0043	0.62 ± 0.05	2.01 ± 0.025
UGUUUU	0.296 ± 0.18	1.985 ± 0.0066	0.546 ± 0.13	2.03 ± 0.023
GUAAGC	0.239 ± 0.059	1.896 ± 0.0061	0.33 ± 0.072	2.01 ± 0.013
GUAAGG	0.183 ± 0.078	1.946 ± 0.015	0.381 ± 0.047	2.025 ± 0.015
GUACGA	0.269 ± 0.031	2.0027 ± 0.0013	0.139 ± 0.31	2.04 ± 0.051
GUACGG	0.245 ± 0.024	1.953 ± 0.0076	0.584 ± 0.19	2.03 ± 0.032
UGUUAG	0.447 ± 0.11	1.63 ± 0.04	0.762 ± 0.15	1.929 ± 0.016
UGUUAA	-0.0426 ± 0.13	1.92 ± 0.024	0.191 ± 0.081	1.98 ± 0.022
UGUUAC	0.317 ± 0.16	1.947 ± 0.018	0.39 ± 0.013	1.99 ± 0.021
AUACGG	0.263 ± 0.033	1.919 ± 0.0086	0.367 ± 0.16	1.98 ± 0.02
UUACUG	-0.466 ± 0.24	1.902 ± 0.011	-0.804 ± 0.28	2.01 ± 0.066
GUACUA	0.314 ± 0.17	2.046 ± 0.0037	0.428 ± 0.14	2.04 ± 0.026
GUACUU	0.484 ± 0.059	2.034 ± 0.015	0.386 ± 0.2	2.04 ± 0.06
GUACUC	0.541 ± 0.13	2.051 ± 0.016	0.366 ± 0.17	2.041 ± 0.013

Variant	FACS-Seq fitted mean (log10) ((6R,S)-folinic acid [1])	normalized RNA/DNA level without ligand (log10) ((6R,S)-folinic acid [2])	FACS-Seq fitted mean (log10) ((6R,S)-folinic acid [3])	normalized RNA/DNA level with ligand (log10) ((6R,S)-folinic acid [4])
AUAAAU	0.45 ± 0.08	1.951 ± 0.017	0.359 ± 0.082	2.028 ± 0.007
AUAAAC	-0.0226 ± 0.13	1.998 ± 0.0043	-0.127 ± 0.3	1.99 ± 0.026
AUAAAG	0.418 ± 0.03	1.901 ± 0.0089	0.417 ± 0.016	2 ± 0.036
AUAAAA	0.343 ± 0.0039	1.9901 ± 0.0019	0.263 ± 0.23	1.994 ± 0.016
GGUUGA	0.168 ± 0.043	2.083 ± 0.0081	-0.309 ± 0.06	2.07 ± 0.031
GGUUGC	0.472 ± 0.12	1.932 ± 0.0076	0.388 ± 0.059	1.9808 ± 0.0018
AUACAG	0.453 ± 0.1	1.9374 ± 0.0012	0.394 ± 0.44	2 ± 0.028
AUACAA	0.428 ± 0.07	1.974 ± 0.0047	0.215 ± 0.014	1.99 ± 0.035
AUACAU	0.534 ± 0.18	1.96 ± 0.022	0.452 ± 0.056	2.017 ± 0.02
GUAAAU	0.332 ± 0.13	1.971 ± 0.0055	0.464 ± 0.033	2.003 ± 0.0095
GUAAAC	0.139 ± 0.033	1.965 ± 0.0075	0.507 ± 0.47	2.04 ± 0.0061
GUAAAA	0.0987 ± 0.013	1.998 ± 0.0036	-0.0576 ± 0.026	1.96 ± 0.046
CUAAUA	0.179 ± 0.11	1.974 ± 0.0043	0.335 ± 0.36	1.982 ± 0.007
UUACGU	0.339 ± 0.078	1.97 ± 0.0066	0.15 ± 0.074	2.01 ± 0.044
UUACCC	0.388 ± 0.015	2.018 ± 0.015	0.263 ± 0.21	2.01 ± 0.03
UUAAUA	0.0221 ± 0.032	2.006 ± 0.0071	0.171 ± 1.6	2.02 ± 0.022
UUAAUG	0.316 ± 0.0067	1.819 ± 0.0065	0.461 ± 0.14	1.97 ± 0.012
AUAACA	0.394 ± 0.16	2 ± 0.017	0.263 ± 0.35	1.98 ± 0.033
